Measurements reported in PMC8046669, “Structural basis of nucleosome transcription mediated by Chd1 and FACT” (Nature Structural & Molecular Biology, 2021).

Target: T1, S. cerevisiae FACT (heterodimer of Spt16 and Pob3) (S. cerevisiae, UniProt P32558 1-1035; Q04636 1-552)
T1 construct: Spt16, subunit of FACT, S. cerevisiae; Pob3, subunit of FACT, S. cerevisiae
Experiment: SEC; size exclusion chromatography runs of Chd1 constructs with FACT, fractions analysed by SDS-PAGE
Details: both partners purified

T1 sequence (P32558 whole entry, chain 1 of 2): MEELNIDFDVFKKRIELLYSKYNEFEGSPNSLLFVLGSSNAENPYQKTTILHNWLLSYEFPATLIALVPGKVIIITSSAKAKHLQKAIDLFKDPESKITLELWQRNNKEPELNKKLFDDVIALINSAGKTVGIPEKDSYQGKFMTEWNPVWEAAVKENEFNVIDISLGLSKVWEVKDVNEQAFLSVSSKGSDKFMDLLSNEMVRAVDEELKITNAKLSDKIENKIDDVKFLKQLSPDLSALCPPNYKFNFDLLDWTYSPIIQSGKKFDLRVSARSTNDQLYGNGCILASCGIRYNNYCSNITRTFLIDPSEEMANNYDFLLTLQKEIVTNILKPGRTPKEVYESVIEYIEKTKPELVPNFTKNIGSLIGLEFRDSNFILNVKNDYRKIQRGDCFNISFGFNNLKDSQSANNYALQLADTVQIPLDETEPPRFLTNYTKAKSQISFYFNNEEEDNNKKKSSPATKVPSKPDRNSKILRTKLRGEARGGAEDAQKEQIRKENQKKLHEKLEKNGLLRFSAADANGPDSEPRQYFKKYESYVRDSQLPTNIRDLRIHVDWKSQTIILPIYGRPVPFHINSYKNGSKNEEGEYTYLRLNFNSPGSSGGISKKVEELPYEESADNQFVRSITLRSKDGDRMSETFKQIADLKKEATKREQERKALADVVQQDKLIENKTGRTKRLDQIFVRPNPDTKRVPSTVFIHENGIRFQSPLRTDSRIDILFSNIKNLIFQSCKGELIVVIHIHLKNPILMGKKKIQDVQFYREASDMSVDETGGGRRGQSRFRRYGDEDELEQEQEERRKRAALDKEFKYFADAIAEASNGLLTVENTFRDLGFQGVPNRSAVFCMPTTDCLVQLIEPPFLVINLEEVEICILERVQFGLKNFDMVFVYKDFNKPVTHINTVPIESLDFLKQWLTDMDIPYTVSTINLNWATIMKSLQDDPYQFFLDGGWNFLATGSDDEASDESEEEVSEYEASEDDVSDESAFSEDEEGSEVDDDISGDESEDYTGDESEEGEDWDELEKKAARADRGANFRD
T1 sequence (Q04636 whole entry, chain 2 of 2): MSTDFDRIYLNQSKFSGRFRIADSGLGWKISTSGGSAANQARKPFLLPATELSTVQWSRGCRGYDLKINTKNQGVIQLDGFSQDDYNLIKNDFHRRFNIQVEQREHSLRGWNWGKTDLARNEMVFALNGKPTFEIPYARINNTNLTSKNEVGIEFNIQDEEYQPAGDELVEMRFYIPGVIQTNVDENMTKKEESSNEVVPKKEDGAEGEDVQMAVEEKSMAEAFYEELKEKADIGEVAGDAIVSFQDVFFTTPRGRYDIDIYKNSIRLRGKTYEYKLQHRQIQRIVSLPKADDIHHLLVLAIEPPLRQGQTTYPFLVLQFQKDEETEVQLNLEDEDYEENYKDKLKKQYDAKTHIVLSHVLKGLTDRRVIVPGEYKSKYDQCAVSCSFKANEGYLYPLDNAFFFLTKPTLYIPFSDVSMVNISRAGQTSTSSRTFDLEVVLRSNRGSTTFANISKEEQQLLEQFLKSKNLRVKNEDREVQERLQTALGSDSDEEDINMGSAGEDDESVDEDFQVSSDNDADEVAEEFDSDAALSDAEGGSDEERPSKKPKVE

binding result: binds
B1: S. cerevisiae Chd1 (enzyme)
chain: not shown
notes: Chd1, S. cerevisiae, chromatin remodeler; 1468 residues by the printed limits of the truncations; also called full-length Chd1
